# Measured values published in the nanobody polyreactivity screen of Harvey et al. (2022).
# Assay: yeast display, Sf9 membrane polyspecificity reagent, FACS + sequencing; frameworks hold sequencing errors
# Procedure, shortened: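 Nanobodies from a synthetic yeast display library (Saccharomyces cerevisiae BJ5465), induced 36–48 hours with galactose, were stained 1 hour at 4 °C with 10% biotinylated, detergent-solubilized Sf9 membrane reagent, enriched on streptavidin microbeads, then FACS-sorted. Anti-HA (expression) and streptavidin (reagent binding) fluorescence set low and high (top ~1%) gates. Polyreactivity labels come from the gate of origin. Genes were colony-PCR amplified, MiSeq 2 × 250 sequenced and filtered by CDR length.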
row,Sequence,polyreactivity (PSR sort gate)
1,QVQLVESGGGLVQAGGSLRLSCAASGLTFDAYAMGWYRQAPGKERELVAAISSGGNTYYADSVKGRFTISRDNAKNTVYLQMNSLKPEDTAVYYCNAVGYYKYFVLAYEYDYWGQGTQVTVSS,low polyreactivity
2,QVQLVESGGGVVQAGGSLRLSCAASGSIFISNAMGWYRQAPGTERELVAAITLTGTSTYYADSVKGRFTISRDNAKNTVYLQMNSLKPEDTAVYYCAAEYYYIVTYDFGYWGQGTQVTVSS,low polyreactivity
3,QVQVVESGGGLVQAGGSLRLSCAASGRTFFRNAMGWYRQARGKERELVAAISKRGGSTRYADSVKGRFTISRDQAQNPDYLQMNSLKPEDTAVYYCAAASRLEYSHATLYYWGQGTQVTVSS,high polyreactivity
4,QVQLVESGGGLVQAGGSLRLSCAASGSILAYYGMGWYRQAPGKEREFVAAISNRGGSTYYADSVKGRFTISRDNAKNTVYLQLNSLKPEDTAVYYCARELYRRVWHHWAYWAAYDYWGQGTQVTVSS,low polyreactivity
5,QVQLVESGGGVVQAGGSLRLSCAASGRIIKSYAMGWYRQAPGKERDLVAAITRGGRTSYADSVKGRFTISRDNAKNTVYLQMNSLKPEDTAVYYCADDGGWRYHPFSSLFDYWGQGPQVTVSS,low polyreactivity
6,QVQLVESGGGLVQAGGSLRLSCAASGFTFYRYAMGWYRQAPGKERELVAAITRTGSTYYADSVKGRFTISRDNAKNTVYLQMNSLKPEDTAVYYCARRSLYFPSYGLYYWGQGTQVTVSS,high polyreactivity
7,QEQLQESGGGLVQAGGSQSLSCAASGIIFDWFFMGWYRQAPGREREFVAAITYGATTNYADSVKGRFTISRDNGKITVYLQMNSLKPEDCAVYYCAAASPLYWVDDFESGWRYYYWGQGTQVTVSS,low polyreactivity
8,QVQLVESGGGLVQAGGSLRLSCAASGIIFEGNVMGWYRQAPGKERELVAAITSDTSTNYADSVKGRFTISRDNAKNTVYLQMNSLKPEDTAVYYCNAVIGTDYYYSGTAEFYYWGQGTQVTVSS,low polyreactivity
9,QVQLVESGGGLVQAGGSLRLSCAASGRIFQYYAMGWYRQAPGKEREFVAAITGRGTRTYADSVKGRFTISRDNAKYTVYLQMNSLKPEDTAVYYCAKPFHYGRSYRSKMDYWGQGTQVTVSS,high polyreactivity
10,QVQLVESGGGLVQAGGSLRLSCAASGMGWYRQAPGKERELVAAITSGDSTNYADSVKGRFTISRDNAKNTVYLQMNSLKPEDTAVYYCAADPDYLYAYYYWGQGTQVTVSS,low polyreactivity
11,QVQLVESGGGLVQAGGSLRLSCAASGRTFSFYAMGWYRQAPGKERELVAAISRGGTTNYADSVKGRFTISRDNAKNTVYLQMNSLKPEDTAVYYCAASYFRRGFYSIYEYDYWGQGTQVTVSS,low polyreactivity
12,QVQLVESGGGLVQAGGSLRLSCAASGRTFGTNAMGWYRQAPGKERELVAAIRRGGSRTYNADSVKGRFTISRDIAKNTVYLQMNSLKPEDTAVYYCAVDYYPYEVSYVRMDYWGQCTQVTVSS,low polyreactivity
13,QVQLVESGGGLVQAGGSLRLSCAASGSTFNEYTMGWYRQAPGKERELVAAIRATDGSTYYADSVKGRFTISRDNAKNTVYLQMNSLKPEDTAVYYCAADYYWNDYWGQGTQVTVSS,low polyreactivity
14,QLQLVESGRGLVQAGGSLRLSCAPSGRILVLIAMGWYRQATGKERELVADITSGGSTYYADSVKGRFTISRDNAKKTVYLQMNSLKKEDTAVYYCAADWNTYPDYQQSYFVCYEYNYWGQGTQVTVSS,low polyreactivity
15,QVQLVESGGGLVQAGGSLRLSCAASGRIFYWYAMGWYRQAPGKERELVATINSGGSTTYADSVKGRFTISRDNAKNTVYLQMNSLKPEDTAVYYCARQRTVKKYYYWGQGTQVTVSS,high polyreactivity
16,QVQLVESGGGLVQAGGSLRLSCAASGSIFNIYAMGWYRQAPGKERELVAAIRWTGGSTYYADSVKGRFTISRDNAKNTVYLQMHSLKPEDTALYYSAARTSRGGHYYWGHGTQVTVSS,high polyreactivity
17,QVQLVESGGGLVQAGGSLRLSCAASGFTFWPNAMGWYRQAPGKERELVAAINWSGGSTYYADSVKGRFTISRDNAKNSVYLQMNSLKPEDTAVYYCNADPYLLEHDYWGQGTQVSVSS,low polyreactivity
18,QVQLVESGGGLVQAGGSLRLSFAPSGNSFGRYAMGWYRQAPGKERELVAAITRSGGTTYYADSVKGRFTLSRDNAKNTGYLQMNSLKPEDTAVYYCATDGDSTKLDYWGQGTQVTVSS,low polyreactivity
19,QVQLVESGGGLVQAGGSLRLSCAASGFIFYINAMVWYRQAPGKERELVAAITNVGSTNYADSVKGRFTISRDNAKNTVYLQMNSLKPEDTAVYYCAAEKGLVALVYKYDYWGQGTQVTVSS,low polyreactivity
20,QVQLVESGGGLVQAGGILRLICAASGSTFPYNAMGWYRQAPGKERELVAAISSGGSTYYADSVNGRFTISRDNAKNTVYLELNSQKPEDTAVYYCAASLGKYIRSLGYGYWGQGTQVTVSS,high polyreactivity
21,QVQLVESGGGLVQAGGSLRLSCAASGLIFVSYAMGWYRPAPGKERELVASITDSDSSTYYADSVKGRFTISRDNAKNTVYLQMNSLKPEDTAVYYCATGGRTEIWYPTLDYWGQGTQVTVSS,low polyreactivity
22,QVQLVESGGGLVQAGGSLRLSCAASGFTFRFYALGWYRQAPGKERELVAAISRRGGTTYYADSVKGRFTISRDNAKNTVYLQMNSLKPEDTAVYYCNKDWTYEHGYWGQGTQVTVSS,high polyreactivity

row,Sequence,polyreactivity (PSR sort gate)
1,QVQLVESGGGLVQAGGSLRLSCAASGSILGYYAMGWYRQAPGKERELVAGIDYSAGSTYYADSVKGRFTISRDNAKNTVYLQMNSLKPEDTAVYYCAADVDSYWGTYDYWGQGTQVTVSS,low polyreactivity
2,QVQLVESGGGLVQAGGSLRLSCAASGRIISVNAMGWYRQAPGKERELVAAITTRGGTPYYADSVKGRFTISRDNAKNTVSLQMNSLKPEDTAVYYCAAESSWSVYWEWAHDYWGQGTQVTVSS,low polyreactivity
3,QVQLVESGGGLVQAGRSLRLSCAASGRIFRQNAMGWYRPAPGKETELVAAIDWNGTSTYADSVKGRFTISRDNAKNTVYFQLNSLKPVDTAVYYCTARYGRTSPDGDYWGQGTQVTVSS,low polyreactivity
4,QFQLVESGGGLVQAGGSLRLSCAASAGYALGGYRQAPGKERELVAVINYSGGSTYYADSVKGRFTISRDNAKNTVYLQMNSLKPEDTAVYYCAAVYRRRYYWGQGTQVTVSS,high polyreactivity
5,QVQLVESGGGLVQAGGSLRLSCAASGRILSVYAMGWYRQAPGKERELDAGISKRGGRTYYADSVKGRFTISRDNAKNTVYLQMKSLTPEDTAVYYCAADYSSYWGRDYWGQGTQVTVSS,high polyreactivity
6,QVQLVESGGGLVQAGGSLRLSCAASGFIFGLYAMGWYRQAPGKERELVAAITWRGSTYYADSVKGRFTISRDNAKNTVYLQMNSLKPEDTAVYYCNDVRSAYILSNDYWGQGTQVTVSS,high polyreactivity
7,QVHVVESGGGLVQAGGSLGLSCAASGITFTAYAMGWYRQAPGKERELVATINSTGITNYADSVKGRFTISRDNSKNTVFLQMNSLKPEDTAVYYCAADLLDISSYDGMDYWGQGTQVTVSS,low polyreactivity
8,QVQLVESGGGLVQAGGSLRLSCAASGGIFSENAMGWYRQAPGKERELVAVITTSGGSTYYADSVKGRFTISRDNAKNTVYLQMNSLKPEDTAVYYCAADVLSWEYDYWGQGTQVTVSS,low polyreactivity
9,QVQLVEAGGGLVQAGGSLRLSGAASGSIFDYNAMGWYRQAPGKERELVASISYSGGSTYYADSVKGRFTISRDTAKNTVYLQMNSLKPEDTAVYYCNARFYWRWHTAYDYWGQGTQVTVSS,high polyreactivity
10,QVQLVESGGGLVQAGGSLRLSCAASGRIFIYYTMGWYRQAPGKEREFVAAITYSGGSTRYADSVKGRFTISRDNAKNTVYLQMNSLKPEDTAVYYCAAKFSVRRGFDYWGQGTQVTVSS,low polyreactivity
11,QVQLVESGGGLVQAGGTLPLSCAASGRTFNGNAMGWYRQAPGKERELVATINYSGGSTYYADSVKGRFTISRDNAKNTVYLQMNSLKPEDNAVYYCAAGGYPWYLRRGGFAGYDYWGQGTQLTVSS,low polyreactivity
12,QVQLVESGGGLVQAGGSLRLSCAASGFIFSYYVMGWYRQAPGKERELVAAINESGGRTYYADSVKGRFTISRDNAKNTVYLQMNSLKQEDTAVYYCAASVLNKIQGYRDYYWGQGTKVTVSS,low polyreactivity
13,QVQLVESGGGLVQAGGSLRLSCAASGSIFPGYAMGWYRQAPGKERELVATITWSGGSTYYADSVKGRFTISRDNAKNTVYLQMISLKTEDTAVYYCNADSNCYYQWNYYGLYDYWGQGTQVTVSS,low polyreactivity
14,QVQLVDSGGGLVQAGGSLRLSCAASGSTFESYAMGWDRQAPGKERELVAAISTNGGRTRYADSVKGRFTISRDNAKNTVYLQMNSLKPVDTAVYYCATYVRGVYASSGYDYWGQGTQVTVSS,high polyreactivity
15,QVQLVESGGGLGQAGGSLRLSCAASGITFSGNAMRWYRQAPGKEREYVAAITWRGENTYYADSVKGRFTISRDTAKNTVSLQMNSLKPVDTAVYYCAAISPLVGLTSYRGPDDSWGQGTQVTVSS,low polyreactivity
16,QVQLVESGGGLVQAGGSLRLSCAASGSTFFGYDMGWYRQAPGTERELVATINSGGSTYYADSVKGRFTISRDNAKYTVYLQMNSLKPEDTAVYYCAARPSYLYPFDRTGEYDYWGQGTQVTVSS,high polyreactivity
17,QVQLVESGGGLVQAGGSLRLSCAASGRTFTAYTMGWYRQAPGKERELVASITWSGGSTYYADSVKGRFTISRDNAKNTVYLQMNSLKPEDTAVYYCATAFDYGQFQLSSEFNYWGQGTQVTVSS,low polyreactivity
18,QVQLVESWGGLVQAGGSLRLSCAASVSTFYNYAMGWYRQAHGKERELVAAISKSGGSTYYADSVKGRFTISRDNAKNTVYLQMNSLNPEDTAVYYCAARGVYRTRSGMGYWGQGTQVTVSS,high polyreactivity
19,QVQLVESGGGLVQAGGSLRLSCAASGFTFVDYAMGWYRQAPGKERELVAAITVSGDSTYYADSVKGRFTISRDNAKNTVYLQMNSLKPEDTAVYYCAADPGYYDGGYWGQGTQVTVSS,low polyreactivity
20,QVQLVESGGGLVQAGGSLRLSCAASGRTFRYYAMGWYRQAPGKERELVAAIRANGGSTYYADSVKGRFTISRDNAKNIVYLQMNSLKPEDTAVYYCAALYRRYPYHYDSWGQGTQVTVSS,high polyreactivity
21,QVQLVESGGGLVQAGGSLRLSCAASGLTFHPYAMGWYRQAPGKERELVAAISSRGTSTYYADSVKGRFTISRDNAKNTVYLQMNSLKPEDTAVYYCAARHGPRAESMYYWGQCTQVTVSS,high polyreactivity
